In patent US20130344085A1 (published 2013):

How the values were obtained:
[1] = target: Human PCSK9 (Genbank EF692496) containing a histidine (His)8 C-terminal tag (UniProt Q8NBP7 31-692); experiment: BIAcore SPR
[2] = target: biotinylated human PCSK9 (UniProt Q8NBP7 31-692, biotinylated (sites not given)); experiment: competition binding ELISA (PCSK9-LDLR)
[3] = target: murine PCSK9; experiment: BIAcore SPR
[4] = target: Cyno PCSK9; experiment: BIAcore SPR
[5] = target: Rat PCSK9; experiment: BIAcore SPR
[6] = target: rhesus PCSK9; experiment: BIAcore SPR

| Binder | Kd [1] [nM] | IC50 [2] [nM] | Kd [3] [nM] | other results |
| --- | --- | --- | --- | --- |
| anti-PCSK9 antibody 508.20.04b (antibody, V domains shown) VH: EVQLVESGGGLVQPGGSLRLSCAASGFTFTGYAIHWVRQAPGKGLEWVARISPANGNTNYADSVKGRFTISADTSKNTAYLQMNSLRAEDTAVYYCARWIGSRELYIMDYWGQGTLVTVSS VL: DIQMTQSPSSLSASVGDRVTITCRASQDVSTAVAWYQQKPGKAPKLLIYSASFLYSGVPSRFSGSGSGTDFTLTISSLQPEDFATYYCQQSYPAPATFGQGTKVEIK | 0.757 | 0.92 |  |  |
| YW508.20.33b (antibody, V domains shown) VH: EVQLVESGGGLVQPGGSLRLSCAASGFTFSSTAIHWVRQAPGKGLEWVARISPANGNTNYADSVKGRFTISADTSKNTAYLQMNSLRAEDTAVYYCARWIGSRELYIMDYWGQGTLVTVSS VL: DIQMTQSPSSLSASVGDRVTITCRASQDVSTAVAWYQQKPGKAPKLLIYSASFLYSGVPSRFSGSGSGTDFTLTISSLQPEDFATYYCQQAYPALHTFGQGTKVEIKR |  |  | 0.0123 | Kd [4]: 0.0624 nM; Kd [5]: 0.0182 nM; Kd [6]: 4.09 nM |
| YW508.20.28b (antibody, V domains shown) VH: EVQLVESGGGLVQPGGSLRLSCAASGFTFTRHTINWVRQAPGKGLEWVARISPANGNTNYADSVKGRFTISADTSKNTAYLQMNSLRAEDTAVYYCARWIGSRELYIMDYWGQGTLVTVSS VL: DIQMTQSPSSLSASVGDRVTITCRASQDVSTAVAWYQQKPGKAPKLLIYSASFLYSGVPSRFSGSGSGTDFTLTISSLQPEDFATYYCQQSYRIQPTFGQGTKVEIK |  |  | 0.323 |  |
| YW508.20.04b (antibody, V domains shown) VH: EVQLVESGGGLVQPGGSLRLSCAASGFTFTGYAIHWVRQAPGKGLEWVARISPANGNTNYADSVKGRFTISADTSKNTAYLQMNSLRAEDTAVYYCARWIGSRELYIMDYWGQGTLVTVSS VL: DIQMTQSPSSLSASVGDRVTITCRASQDVSTAVAWYQQKPGKAPKLLIYSASFLYSGVPSRFSGSGSGTDFTLTISSLQPEDFATYYCQQSYPAPATFGQGTKVEIK |  |  | 0.117 |  |
| anti-PCSK9 antibody 508.20.06 (antibody, V domains shown) VH: EVQLVESGGGLVQPGGSLRLSCAASGFTFTGYAIHWVRQAPGKGLEWVARISPANGNTNYADSVKGRFTISADTSKNTAYLQMNSLRAEDTAVYYCARWIGSRELYIMDYWGQGTLVTVSS VL: DIQMTQSPSSLSASVGDRVTITCRASQDVSTAVAWYQQKPGKAPKLLIYSASFLYSGVPSRFSGSGSGTDFTLTISSLQPEDFATYYCQQSYPSPATFGQGTKVEIK | 0.628 | 1 |  |  |

Second part, led by results:

| Kd [1] [nM] | IC50 [2] [nM] | Kd [3] [nM] | Binder | other results |
| --- | --- | --- | --- | --- |
| 0.481 | 1.39 |  | anti-PCSK9 antibody 508.20.84 (antibody, V domains shown) VH: EVQLVESGGGLVQPGGSLRLSCAASGFTFTGYAIHWVRQAPGKGLEWVARISPANGNTNYADSVKGRFTISADTSKNTAYLQMNSLRAEDTAVYYCARWIGSRELYIMDYWGQGTLVTVSS VL: DIQMTQSPSSLSASVGDRVTITCRASQDVSTAVAWYQQKPGKAPKLLIYSASFLYSGVPSRFSGSGSGTDFTLTISSLQPEDFATYYCQQSYPAPSTFGQGTKVEIK |  |
| 0.349 | 1.05 |  | anti-PCSK9 antibody 508.20.28b (antibody, V domains shown) VH: EVQLVESGGGLVQPGGSLRLSCAASGFTFTRHTINWVRQAPGKGLEWVARISPANGNTNYADSVKGRFTISADTSKNTAYLQMNSLRAEDTAVYYCARWIGSRELYIMDYWGQGTLVTVSS VL: DIQMTQSPSSLSASVGDRVTITCRASQDVSTAVAWYQQKPGKAPKLLIYSASFLYSGVPSRFSGSGSGTDFTLTISSLQPEDFATYYCQQSYRIQPTFGQGTKVEIK |  |
|  | 15.2 |  | YW508.20b (antibody, V domains shown) VH: EVQLVESGGGLVQPGGSLRLSCAASGFTFTGYAIHWVRQAPGKGLEWVARISPANGNTNYADSVKGRFTISADTSKNTAYLQMNSLRAEDTAVYYCARWIGSRELYIMDYWGQGTLVTVSS VL: DIQMTQSPSSLSASVGDRVTITCRASQDVSTAVAWYQQKPGKAPKLLIYSASFLYSGVPSRFSGSGSGTDFTLTISSLQPEDFATYYCQQSYTTPPTFGQGTKVEIK |  |
|  |  | 0.135 | YW508.20.84 (antibody, V domains shown) VH: EVQLVESGGGLVQPGGSLRLSCAASGFTFTGYAIHWVRQAPGKGLEWVARISPANGNTNYADSVKGRFTISADTSKNTAYLQMNSLRAEDTAVYYCARWIGSRELYIMDYWGQGTLVTVSS VL: DIQMTQSPSSLSASVGDRVTITCRASQDVSTAVAWYQQKPGKAPKLLIYSASFLYSGVPSRFSGSGSGTDFTLTISSLQPEDFATYYCQQSYPAPSTFGQGTKVEIK |  |
|  |  | 0.201 | YW508.20.06 (antibody, V domains shown) VH: EVQLVESGGGLVQPGGSLRLSCAASGFTFTGYAIHWVRQAPGKGLEWVARISPANGNTNYADSVKGRFTISADTSKNTAYLQMNSLRAEDTAVYYCARWIGSRELYIMDYWGQGTLVTVSS VL: DIQMTQSPSSLSASVGDRVTITCRASQDVSTAVAWYQQKPGKAPKLLIYSASFLYSGVPSRFSGSGSGTDFTLTISSLQPEDFATYYCQQSYPSPATFGQGTKVEIK |  |
| 0.408 | 1.31 |  | YW508.20.33b reformatted into human IgG1 having a heavy chain with SEQ ID NO: 35 and a light chain with SEQ ID NO: 36 (antibody, V domains shown) VH: EVQLVESGGGLVQPGGSLRLSCAASGFTFSSTAIHWVRQAPGKGLEWVARISPANGNTNYADSVKGRFTISADTSKNTAYLQMNSLRAEDTAVYYCARWIGSRELYIMDYWGQGTLVTVSS VL: DIQMTQSPSSLSASVGDRVTITCRASQDVSTAVAWYQQKPGKAPKLLIYSASFLYSGVPSRFSGSGSGTDFTLTISSLQPEDFATYYCQQAYPALHTFGQGTKVEIKR |  |
